According to patent EP4755372A1, “POLYMERIC MICELLE […] POLYMER CHAIN OF SELF-A[…]” (INSTITUTE OF SCIENCE TOKYO, priority 2023, dated 2025):

Assays:
[1] = Pharmacokinetics test in CT26 tumor-bearing mice, Gd concentration by ICP-MS; type: in vivo; details: caudal vein, Gd conc. 5 mg/kg; for blood retentivity and blood clearance: CT26 tumor-bearing mice; for tumor accumulation (Gd concentration): 24-48 hours after administration for SMDC-Gd4; for accumulation in different organs: liver, spleen, kidneys, brain, muscle, pancreas
Procedure: A tumor-bearing model was prepared by subcutaneously transplanting CT26 mouse colorectal cancer cells into mice (Balb/c, 6-week-old, female, SLC), and the model was used for pharmacokinetics testing. A cell suspension that had been subcultured (5% CO2, 37°C) using DMEM medium (containing 10% FBS and 1% penicillin streptomycin) was subcutaneously injected into the mouse dorsal region (1 × 10^6 cells/mouse, DMEM). At 10 days after administration, the tumor size was randomized and each sample was administered to the mouse through the caudal vein (Gd conc. 5 mg/kg, n = 6). After administration, blood was collected and the organs (tumors, liver, spleen, kidneys, pancreases, skin, muscles and brains) were dissected after specified time periods (1, 4, 8, 24 and 72 hours). After sampling, the plasma was collected by centrifugal separation of the blood to prepare a sample. The collected organs were pretreated (heated at 70% nitric acid, heating at 90°C for ≥1 hour, followed by dilution with ultrapure water), and the Gd concentration was measured using ICP-MS.
• Apparatus: Agilent 7700x ICP-MS/Agilent • Pretreatment apparatus: EYELA MG-2300/Tokyo Rikakikai Co., Ltd. • Standard solution: Gadolinium standard solution (Gd1000) for ICP analysis/FujiFilm-Wako • Results: Figs. 18 to 25

[2] = system: CT26 mouse colorectal cancer cells; assay: MRI R1 mapping in CT26 tumor-bearing mice; type: in vivo; details: for tumor/muscle ratio (T/M ratio) of the relaxation rate: Gd conc. 0.1 mmol/kg
Procedure: CT26 mouse colorectal cancer cells were subcutaneously grafted into mice (BALB/c nu/nu mice, 5-week-old, female, SLC) to create a tumor-bearing model which was used for MRI. A CT26 cell suspension that had been subcultured (5% CO2, 37°C) using DMEM medium (containing 10% FBS and 1% penicillin streptomycin) was subcutaneously injected into the mouse dorsal region (1 × 10^6 cells/mouse, Hank's balanced salt solution). At 1 week after administration, the tumor size was randomized, and then each sample was administered to the mouse through the caudal vein (Gd conc. 0.1, 0.05, 0.03 and 0.01 mmol/kg). MRI imaging (R1 mapping, T1-weighted image) was carried out under isoflurane anesthesia.
• Apparatus: Horizontal 1.0 T Bruker ICON MRI system/Bruker • Pulse sequence: Rapid acquisition with relaxation enhancement (RARE)-based inversion recovery sequence • Measuring conditions: Echo time (TE) = 10 ms; [formula] Repetition time (TR) = 10,000 ms; [formula] [formula] RARE Factor = 4; [formula] Field of view (FOV) = 28.0 × 16.0 mm^2; [formula] Slice thickness = 2.0 mm; [formula] Pixel count = 70 × 40; [formula] Resolving power (in-planeresolution) = 0.4 × 0.4 mm^2 [formula] Number of excitations = 1; [formula] • Fat suppression mode: OFF; • FOV saturation: ON • Measuring points: Before administration and 20, 40, 60 minutes and 24 hours after administration • Results: Figs. 38 to 42

[3] = SAXS measurement (Guinier plot particle size, Kratky plot); type: physicochemical; details: SAXS in aqueous solution, 10 mg/ml
Procedure: (§1) For the previously obtained BZAm-PEGAn-CEAk(DOTA)j and PEGAn-CEAk(DOTA)j, the particle size was confirmed by Guinier plot in small angle x-ray scattering (SAXS), and SMDC formation was confirmed by Kratky plot. The particle size was also measured by transmission electron microscopy (TEM) and dynamic light scattering. The surface potential was also measured.
• Apparatus: nano-viewer SAXS system/Rigaku Corp. • Solvent: Ultrapure water or DMF • Sample concentration : 10 mg/ml • Measuring temperature: room temperature • Results: Fig. 12 and Fig. 13

[4] = Zeta potential (surface potential) measurement; type: physicochemical; details: for surface charge (zeta potentials): ultrapure water
Procedure: as §1
• Apparatus: Malvern Zetasizer Nano ZSP/Malvem Panalytical • Solvent: Ultrapure water • Sample concentration : 10 mg/ml • Measuring temperature: room temperature • Results: Fig. 16 and Fig. 17

[5] = Relaxivity measurement (r1, r2), 0.47T NMR; type: physicochemical; details: compared with Gd-DOTA, 37°C
Procedure: Different polymer samples (Gd conc. 1 mM, 0.5 mM, 0.25 mM and 0.125 mM) were prepared, and the longitudinal relaxation time T1 and transverse relaxation time T2 were measured for each concentration. Using the obtained results, a plot of Gd concentration with respect to obtained relaxation time was drawn, and the longitudinal relaxivity r1 and transverse relaxivity r2 were derived from the slope of the fitted curve, based on the following formula. Here, (1/Ti)obs represents the measured relaxation time, and (1/Ti)d represents the relaxation time of the solvent. (1/Ti)obs = (1/Ti)d + ri [Gd]. i = 1, 2 [formula]
• Apparatus: Bruker minispec 0.47T NMR/Bruker • Solvent: Ultrapure water or BSA (10 mg/mL)-dissolved ultrapure water • Measuring conditions: Temperature: 37°C, receiver gain = 80-82, recycle delay = 2. • Results: Table 22

[6] = system: CT26 mouse colorectal cancer cells; assay: Gd-NCT experiment (neutron irradiation of CT26 tumor-bearing mice); type: in vivo; details: 3 administrations, Gd conc. 0.1 mmol/kg, neutron irradiation 10 minutes
Procedure: A tumor-bearing model prepared by subcutaneously grafting CT26 mouse colorectal cancer cells into mice (Balb/c, 6-week-old, female, SLC) was used in an experiment for Gd-NCT. A CT26 cell suspension was injected into the mouse right femoral region (2 × 10^5 cells/mouse, DMEM). After approximately 2 weeks, each sample was administered 3 times through the caudal vein of the mouse (after 0, 24 and 48 hours, Gd conc. 0.1 mmol/kg, n = 5). A PBS-administered group was used as a comparative control. At 72 hours after the first administration, the holder in which the mouse had been placed was set on a 5 mm-thick thermoplastic sheet containing 40 wt% ^6LiF (96% ^6Li) for shielding of thermal neutrons and irradiated with neutron rays for 10 minutes only at the tumor site of the right femoral region (5 MW, Kyoto University Research Reactor, fluence: 2.87 × 10^12 to 3.29 × 10^12 thermal neutron/cm^2, 5.10 × 10^11 to 5.86 × 10^11 epithermal neutron/cm^2). The antitumor effect was confirmed by time-dependent change in tumor volume, and toxicity was confirmed by change in mouse body weight.

[7] = Evaluation of SMDC formation: DA from SEC-MALS in PBS and chloroform; type: physicochemical; details: DA = MwPBS/MwCHCl3; 5 mg/mL, 40°C
Procedure: The foldability in water of BZAm-PEGAn-CEAk(DOTA)j obtained by the procedure described above was evaluated by comparing the absolute weight-average molecular weight Mw calculated from size exclusion chromatography in aqueous solution (PBS) and in an organic solvent (chloroform or DMF) and a system utilizing a multi-angle light scattering detector (SEC-MALS). Data obtained from SEC-MALS were analyzed using a Zimm plot, with dn/dc being the value calculated by measuring the refractive index of 4 different samples with different concentrations in each solvent (4, 3, 2 and 1 mg/mL). DA was calculated by the following formula. DA = MwPBS/MwCHCl3
• Apparatus: JASCO Extrema HPLC system (LC-Net II/ADC, Co-4060, AS-4050, PU-4180/JASCO Corp. • Detector: UV-4070/JASCO Corp., RI-4030/JASCO Corp., DAWN 8 MALS detector/Wyatt Technology Corporation • Column: OHpak SB-804HQ column/Showa Denko K.K. • (column size: 8 mm × 300 mm, pore size: 20 nm, particle size: 10 µm, exclusion limit: 1 × 10^6 g/mol) • OHpak SB-806 MHQ column/Showa Denko K.K. • (column size: 8 mm × 300 mm, pore size: 1.5 µm, particle size: 13 µm, exclusion limit: 2 × 10^7 g/mol) • OHpak SB-G 6B Guard column/Showa Denko K.K. • Mobile phase: 137 mM NaCl, 2.7 mM KCl, 11.9 mM phosphate buffer (PBS), pH 7.4 Temperature: 40°C • Flow rate: 1 mL/min • Sample concentration : 5 mg/mL • Results: Table 21
• Apparatus: TOSOH HLC-8220 GPC system/Tosoh Corp. • Detector: DAWN HELEOS II MALS detector/Wyatt • Column: LF-804 column/Showa Denko K.K. • (column size: 8 mm × 300 mm, pore size: 300 nm, particle size: 6 µm, exclusion limit: 2 × 10^6 g/mol) • LF-G guard column/Showa Denko K.K. • Mobile phase: chloroform • Temperature: 40°C • Flow rate: 1 mL/min • Sample concentration : 5 mg/mL • Results: Table 21

[8] = TEM particle size measurement; type: physicochemical; details: by folding; method not given
Procedure: as §1
• Apparatus: JEM-2100F TEM system/JEOL Corp. • Solvent: Ultrapure water • Pretreatment: Stained on formvar/carbon supported-copper grids • Measuring temperature: room temperature • Results: Fig. 14 and Fig. 15

[9] = Pharmacokinetics test for Gd-NCT (single or 3 administrations), Gd by ICP-MS; type: in vivo, mice
Procedure: A tumor-bearing model was prepared by subcutaneous grafting of CT26 mouse colorectal cancer cells into mice (Balb/c, 6-week-old, female, SLC) by the same procedure as for the SMDC-Gd pharmacokinetics test, and a pharmacokinetics test was conducted as an experiment for Gd-NCT. In this case, however, each sample was administered once or 3 times through the caudal vein of the mouse (0, 24 and 48 hours afterwards, Gd conc. 0.1 mmol/kg, n = 5), with blood collection and organ dissection and collection (tumors, liver and kidneys) 24 hours after the final administration. Each organ was pretreated by the same procedure as described above, and the Gd concentration was also measured in the same manner using ICP-MS. • Apparatus: Agilent 7700x ICP-MS/Agilent • Pretreatment apparatus: EYELA MG-2300/Tokyo Rikakikai Co., Ltd. • Standard solution: Gadolinium standard solution (Gd1000) for ICP analysis/FujiFilm-Wako • Results: Fig. 46 and Fig. 47

[10] = 3 doses given every 24 hours, after the final 24 hours

Compound: PEGA124-CEA10(DOTA)4 [PEGA-Gd4]
- blood retentivity and blood clearance [1]: equivalent
- R1 value ([2]; during the 24 hours, compared with SMDC-Gd4): consistently lower than SMDC-Gd4
- Kratky plot (particle formation) [3]: no peak could be confirmed
- surface charge (zeta potentials) [4]: negative
- longitudinal relaxivity (r1) [5]: higher

Compound: O=C([O-])CN1CCN(CC(=O)[O-])CCN(CC(=O)O)CCN(CC(=O)[O-])CC1.[Gd+3] [Gd-DOTA, gadoteric acid]
- blood retentivity and blood clearance [1]: rapidly excreted from the blood
- tumor accumulation (Gd concentration) [1]: low
- tumor/muscle ratio (T/M ratio) of the relaxation rate ([2]; 1 hour after administration): 0.77
- antitumor effect by Gd-NCT (tumor volume) [6]: failed to exhibit sufficient antitumor activity

Compound: BZA100-PEGA70-CEA30(DOTA)17 [TP6]
- blood retentivity and blood clearance [1]: more rapid
- accumulation in different organs [1]: accumulated more abundantly in the liver, spleen and kidneys
- DA [7]: 0.53
- Kratky plot (particle formation) [3]: form particles in aqueous solution
- zeta potential [4]: -37 mV
- surface charge (zeta potentials) [4]: negative
- longitudinal relaxivity (r1) [5]: higher

Compound: PEGA104-CEA30(DOTA)12 [PEGA-Gd12]
- longitudinal relaxivity (r1) [5]: higher

Compound: BZA100-PEGA90-CEA10(DOTA)4 [TP4]
- blood retentivity and blood clearance [1]: equivalent
- tumor accumulation (Gd concentration) [1]: at least twice that of SMDC-Gd17 and PEGA-Gd4
- accumulation in different organs [1]: equivalent to typical nanomedicine
- tumor/muscle ratio (T/M ratio) of the relaxation rate ([2]; 1 hour after administration): 1.17
- contrast effect in tumor tissue ([2]; longitudinal relaxation rate of tumors): high contrast effect
- tumor/muscle ratio (T/M ratio) of the relaxation rate ([2]; within 24 hours after administration): 1.36
- antitumor effect by Gd-NCT (tumor volume) [6]: suppressed tumor growth
- change in body weight after Gd-NCT [6]: without body weight loss
- DA [7]: 0.91
- Kratky plot (particle formation) [3]: form particles in aqueous solution
- diameter [8]: about 6 nm
- surface charge (zeta potentials) [4]: negative
- longitudinal relaxivity (r1) [5]: higher
- intratumoral Gd concentration [9, 10]: 91.2 ppm
- intratumoral concentration in terms of ^157Gd groups [9, 10]: 14.3 ppm
- intratumoral concentration in terms of ^157Gd groups ([9]; single dose, 24 hours after injection): 6.4 ppm
- intratumoral Gd concentration ([9]; single dose, 24 hours after injection, Gd conc. 0.1 mmol/kg): 41.2 ppm

Compound: BZA100-PEGA80-CEA20(DOTA)9 [TP5]
- DA [7]: 0.88
- Kratky plot (particle formation) [3]: form particles in aqueous solution
- longitudinal relaxivity (r1) [5]: higher
